The data set in a line: yeast display, Sf9 membrane polyspecificity reagent, FACS + sequencing; frameworks hold sequencing errors. The gist of the method: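 Nanobodies from a synthetic yeast display library (Saccharomyces cerevisiae BJ5465), induced 36–48 hours with galactose, were stained 1 hour at 4 °C with 10% biotinylated, detergent-solubilized Sf9 membrane reagent, enriched on streptavidin microbeads, then FACS-sorted. Anti-HA (expression) and streptavidin (reagent binding) fluorescence set low and high (top ~1%) gates. Polyreactivity labels come from the gate of origin. Genes were colony-PCR amplified, MiSeq 2 × 250 sequenced and filtered by CDR length.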
On to “QVQLQESGGGLVQAGGSLRLSCAARGNIFLGDTMGWYRQAPGKEREFVAGIARGGNPYYADSVKGRFTISRNNAKNTVYLQKNSLKPVDTAVHYCAVQRSHASDYNYWGQGTQVTVSS”, for which the “polyreactivity (PSR sort gate)” value is “low polyreactivity”.
The value for “QVQLQESGGGLVQAGGSLRLSCAASGNIFGTKSMGWYRQAPGKGREFVAAINDGGSTNYADSVKGRFTIGRDNAKNTVYLQMNSLKPEDTAVYYCAAQWVRSDYHTYWGQGTQVTVSS” was “high polyreactivity”; that for “QVQLQESGGGLVQAGGSLRLSCAASGNISVTGVMGWYRQAPGKERELVASIGIGGTTYYADSVKGRFSISRDNAKNTVYLQMNSLKPEDTAVYYCGARYVYSAYSYWGQGSQVTVSS” was “low polyreactivity”.
Regarding “QVQLQESGGGLVQAGGSLRLSCAASGNIVDADIMGWSRQAPGKERELVASITDGGSTNYADSVKGRFTISRDYAKNTVYLQMNSLKPEDTAVYYCAAIAYPDIPTYIDYDSEYFYWGQGTQVTVSS”, the “polyreactivity (PSR sort gate)” value was “low polyreactivity”.
With “QVQLQESGGGLVQAGGSLRLSCAASGSIFADVQMGWYRQAPGKELELVASINFRGTTTYYADSVKGRFTISRDNAKNTVYLQMSSLKPEDNAVYYCAVGRSEGGDFAYWGQGTHVTVSS”, the “polyreactivity (PSR sort gate)” value was “low polyreactivity”.
In the case of “QVQLQESGGGLVQAGGSLRLSCAASGSIFDSTFMGWYRQAPGKERELVAGISYGTITYYADSVKGRFTISRDNAKHRVSAEEQPESGRYRGVLLRGYPAGQLFLACWGQGTQVTESS”, the “polyreactivity (PSR sort gate)” value is reported as “high polyreactivity”.
For “QVQLQESGGGLVQAGGSLRLSCAASGSIFDTPTMGWYRQAPGKERELVASIAYDDNTYYADSVKGRFTISRYNAKHTVYLQMNSLKPGDTAVYYCAVTDRIYYYFVYWGQGTRVTVSS”, the “polyreactivity (PSR sort gate)” value is on record as “high polyreactivity”.
In the case of “QVQLQESGGGLVQAGGSLRLSCAASGSIFKVVDMGLYRQAPAKEREFVATIGEGGNTYYADSVKGRFTISRDNAKNTVYLQMHSLKPEDTAVYFYAVVLGTSYRYTYWGQGTQVTVSS”, the “polyreactivity (PSR sort gate)” value is recorded as “low polyreactivity”.
On to “QVQLQESGGGLVQAGGSLRLSCAASGSIFLLHIMCWYRQAPGKERESVAAISYGTSTYYADSVNGRFTICRDNAKNTVYLQMNSPKPDDTAVYYCAALFLVSKHHHFWGEGTQVTVSS”, for which the “polyreactivity (PSR sort gate)” value was “low polyreactivity”.
On to “QVQLQESGGGLVQAGGSLRLSCAASGSIFVSVTMGWYRQAPGKERELVASIGRGSTTNHADSVKGRFTISRDNAKNIVYLLMNSLKPEDTAVYSCAALESYGKYHGYWGQGTQVTVSS”, for which the “polyreactivity (PSR sort gate)” value is listed as “low polyreactivity”.
On to “QVQLQESGGGLVQAGGSLRLSCAASGSIFVSVTMGWYRQAPGKERELVASIGRGSTTNHADSVKGRFTISRDNAKNIVYLLMNSLKPEDTAVYYCASLESYGKYHGYWGQGTQVTVSS”, for which the “polyreactivity (PSR sort gate)” value is given as “low polyreactivity”.
In the case of “QVQLQESGGGLVQAGGSLRLSCAASGSISAVGAMGWYRQAPGKEREFAASVNWGTNTNYADSVKGRFTISRDNAKTTLYLQMNSLKPEDTAVYYCAADVQITSAGGDYDYWGQGTQVTVSS”, the “polyreactivity (PSR sort gate)” value is listed as “low polyreactivity”.
As for “QVQLQESGGGLVQAGGSLRLSCAASGSISGPQVMVWYRQAPGKEREFVAAINVGANTYYADNVKGRFTISRDNAKNTVYLQMNSLKPEDTAVYYCAAVYYGDIGHESWGQGTQVTVSC”, the “polyreactivity (PSR sort gate)” value is “low polyreactivity”.
With “QVQLQESGGGLVQAGGSLRLSCAASGSISLGRGMGWYRQAPGKREFVVTIAASVNWGTNTNYADSVKGRFTISRDNAKNTLYLQMNSLKPEDTAVYYCAVLPEWETRHDYWGHGTQVTVSS”, the “polyreactivity (PSR sort gate)” value is “low polyreactivity”.
On to “QVQLQESGGGLVQAGGSLRLSCAASGSISRLDYRGWYRQASGKERELVAAIDNGSTTYYADSVKGRLTISRDNAKYTVYLQMNSLKPEDTAVYFCAAVRGRGGTHAYWGQGTQVTVSG”, for which the “polyreactivity (PSR sort gate)” value is given as “low polyreactivity”.
The same measure for “QVQLQESGGGLVQAGGSLRLSCAASGSISYPRTMGWYREAPGKEREFVAGIGVGGTTYYADSVKGRFTISRDNAKNTVYLQMNSLKPEDAAVYYCAVAAYYDKYYVYWGQGTQVTVSC”: “low polyreactivity”.
Take “QVQLQESGGGLVQAGGSLRLSCAASGSLFLFYTMGWYRQAPVIEREFVAGITLGTTTYNADSVKGRFTISRDNVKNTVFLQMNSLKPEDTAVYYCAVAVGHYTEFWYWGQGTQVTMSS”: the “polyreactivity (PSR sort gate)” value is given as “high polyreactivity”.
The value for “QVQLQESGGGLVQAGGSLRLSCAASGTIFRFRYMGWHRQAPGKERELVAGINGGTTTYYADSVIGRFTISRDNAKNTVYLHMNCLKPDDTAVYNCAAGASRLTYYDYWGQGTQVTVSS” was “low polyreactivity”; that for “QVQLQESGGGLVQAGGSLRLSCAASGTIFRFRYMGWHRQAPGTERELVAGINGGTTTYYADSVIGRFTISRDNAKNTVYLQMNSLKPDDTAVYNCAAGASRLTYYDYWGQGTQVTVSS” was “low polyreactivity”.
As to “QVQLQESGGGLVQAGGSLRLSCAASGTIFTARFMGWYRQAPGKERELVATITDGGNTNHADSVKGRFTISRDNAKNTVYLQMNSLKPEDAAVYFCAAGEVDNDTLLYWGQGSQVTVSS”, the “polyreactivity (PSR sort gate)” value is “low polyreactivity”.
For the sequence “QVQLQESGGGLVQAGGSLRLSCAASGTIFWLWAMGWYCKAPGKERELVASISSGGTTYHADSVKGRFTISRDNAKNTVYLQMNSLKPEDTAVYYSAAFYVATAKLGYWGQGSQVTVSS”, the “polyreactivity (PSR sort gate)” value is “low polyreactivity”.
“QVQLQESGGGLVQAGGSLRLSCAASGTIFWLWAMGWYCPAPGKERELVASISSGGTTYHADSVKGRFTISRDNAKNTVYLQMNSLKPEDTAVYYSAAFYVATAKLGYWGQGSQVTVSS”: the “polyreactivity (PSR sort gate)” value is reported as “low polyreactivity”.
On to “QVQLQESGGGLVQAGGSLRLSCAASGTISDRAGMGWYRQAPAKNAIVATIDRGTNTNYADSVKGRFTISRDNAKNPVYLKMNSLKPEDTAVYNWAADGRYYIYLDYWGQGTQVTVSS”, for which the “polyreactivity (PSR sort gate)” value is listed as “low polyreactivity”.
Consider “QVQLQESGGGLVQAGGSLRLSCAASGTISDSGLKGWYRQAPGIERELVAGISSGGITNYADSVKGRFTISRDNAQNTVYLQMNSLKPVDTAVYWGQGTQLTVSS”, for which the “polyreactivity (PSR sort gate)” value is “low polyreactivity”.
“QVQLQESGGGLVQAGGSLRLSCAASGTISLGDNMGWYRQAPGKEREFVATISVGGITYYVDSVKGRFTISRDIAKNTVYLQMNSLKPEDTAVYYCAALDIYYFRYYYWGQGTQVTVSS”: the “polyreactivity (PSR sort gate)” value is reported as “low polyreactivity”.
Turning to “QVQLQESGGGLVQAGGSLRLSCAASGTISPLPAMGWYRQAPGKEREFVAGIDTGAITNYADSVKGRFTISRDNAKNTVYLQMNSLIAEDTAVYYCAVFPAAYDYYERYYTYWGQGTQVTVSS”, the “polyreactivity (PSR sort gate)” value was “low polyreactivity”.
For “QVQLQESGGGLVQAGGSLRLSCAASGTISQEDRMGWYRQAPGKEREFVAAIGLGSNTNYADSLKGRFTISRDNAKNTVYLQMNSLKPEDTAVYYCAVSVWQYSDHVYRGQGTQVTVSS”, the “polyreactivity (PSR sort gate)” value is “low polyreactivity”.
For “QVQLQESGGGLVQAGGSLRLSCAASGTISQEDWMGWYRQAPGKEREFVAAIGLGSNTNYADSLKGRFTMSRDNAKNTVYLQMNSLKPEDTAVYYCAVSVWQYSDHVYRGQGTQVTVSS”, the “polyreactivity (PSR sort gate)” value is listed as “low polyreactivity”.
For “QVQLQESGGGLVQAGGSLRLSCAASGTISTDSYMGWYRQAPGKERKFVATIGYGGITYYADSVKGRSTISRDSAKNTVYLQMNSLKPEDTAVYYCAVNSYYPDHYWYWGRGTQVTVSS”, the “polyreactivity (PSR sort gate)” value is given as “high polyreactivity”.
Turning to “QVQLQESGGGLVQAGGSLRLSCAASGTISYAPHMGWYRHAPGKERELDAGITIGGTTYYADSVKGRFTISRDYAKNTVDLQMNRLSPGDTAVYYCAAHSEQYTPFYYWGQGTQVTVSS”, the “polyreactivity (PSR sort gate)” value was “low polyreactivity”.
In the case of “QVQLQESGGGLVQAGGSLRLSCAASGTITVLYKMAWFRQEPGKEREFVASINYGTSTYYADSVKGRFTVSRDSAKNTVYLQMNSLKPEDTAVYYCAAAYRWQDVYRYWGQGTQVTVSS”, the “polyreactivity (PSR sort gate)” value is “low polyreactivity”.
Consider “QVQLQESGGGLVQAGGSLRLSCAASGYIILQYAMGWYRPAPGKERELVASIARGTSTYYADSVKGRFTISRDNAKNTVYLQMNSLKPEDTAVYYCAVIYSWGLWHDYWGQGTQVTVSS”, for which the “polyreactivity (PSR sort gate)” value was “high polyreactivity”.
As for “QVQLQESGGGLVQAGGSLRLSCAASGYISAGRQMGWYRQAPGKEREFVATINGGATTNYADSVKGRFTISRDNAKNSVFLQMNSLKPEDTAVYYCAAVIWYVQDYSYWGQGAQVTVSS”, the “polyreactivity (PSR sort gate)” value is recorded as “high polyreactivity”.
Take “QVQLQESGGGLVQAGGSLRLSCAASGYISHADEMGWYRQAPGKEHELVASISNGGSTNYADSVKARCTISRDNAKTTVYLQMNSLKSEATAVYFCAAWTGQVDIHYYWGQGTQVTVSS”: the “polyreactivity (PSR sort gate)” value is “low polyreactivity”.
Consider “QVQLQESGGGLVQAGGSLRLSCAASGYISHADEMGWYRQAPGKEHELVASISNGGSTNYADSVKGRFTISRDNAKNTVYLQMNSLKSELTAVYYCAAWTGQVDIHYYWGQGTQVTVSS”, for which the “polyreactivity (PSR sort gate)” value is on record as “low polyreactivity”.
With “QVQLQESGGGLVQAGGSLRLSCAASGYISYFVGMGWYRQAPGKEREFVASIADGSNTYYADSVKGRFTISRDNAKNTVYLQRNSLKQEDTAVYYCAVEDSWTYRFDYWGQGTQVTVSS”, the “polyreactivity (PSR sort gate)” value is on record as “high polyreactivity”.
For the sequence “QVQLQESGGGLVQAGGSLRLSCEASGSISHYIFMGWYRQAQGKEREFVAGIGYGGTTNYADSVKGRFTISRDNAKNTVYLQMNSLKPEDTAMYYCAAREATEFYLYYWGQGTQVTVSS”, the “polyreactivity (PSR sort gate)” value was “low polyreactivity”.
The value for “QVQLQESGGGLVQAGGSLRLSCEASGYISLAQTIGWYRQAPGKEREFVASIALGSSTYYTDSVKGSFTISRDKEKTTVYLQMNSLKPAETGVYYCAARVGASYAHDYWGQGTQVTVSS” was “low polyreactivity”; that for “QVQLQESGGGLVQAGGSLRLSSAASGNFFDADIIGRYRQAPGKERELVASITDGGSTNYADSVKGRFTISRDDTRNTVHLQMNSLYPEDTAVYYCAAIAYPDIPTYFDYDSDYSYWGQGTQVTVSS” was “high polyreactivity”.
On to “QVQLQESGGGLVQAGGSLRLSSAASGSIIQYGYMGWYRQAPGKEREFVAGIGGGTSNYADSVKGRFTMSRDNAKNTVYLQMNSLKPEDTAVYYCNTDAGDYYGENYWGQGTQVTVSS”, for which the “polyreactivity (PSR sort gate)” value is on record as “low polyreactivity”.
For the sequence “QVQLQESGGGLVQAGGSLRLSSAASGTISPLPAMGWYRHAPGKEREFVAGIDTGAIHNYADSVKGRFTIRRDNAKNTVYLQMNSLKPEDTAVYYCAVFPAAYEYYERYYTYWGQGTQVTVSS”, the “polyreactivity (PSR sort gate)” value was “low polyreactivity”.

The values above are taken from the nanobody polyreactivity screen of Harvey et al. (2022).
